# T1: CCL5/RANTES (UniProt P13501 24-91)
# T1 construct: also called 125I-CCL5/RANTES
# T1 sequence: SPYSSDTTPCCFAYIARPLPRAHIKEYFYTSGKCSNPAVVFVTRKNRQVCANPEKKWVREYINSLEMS
# T2: CCL3/MIP-1-alpha (UniProt P10147 24-92)
# T2 construct: also called MIP-1α
# T2 sequence: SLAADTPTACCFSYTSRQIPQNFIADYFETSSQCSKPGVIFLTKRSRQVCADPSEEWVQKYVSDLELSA
# T3: CCL18/PARC (UniProt P55774 21-89)
# T3 sequence: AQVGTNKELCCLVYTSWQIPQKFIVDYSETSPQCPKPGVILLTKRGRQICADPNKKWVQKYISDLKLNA
# T4: CCL4/MIP-1-beta (UniProt P13236 24-92)
# T4 construct: also called MIP-1β
# T4 sequence: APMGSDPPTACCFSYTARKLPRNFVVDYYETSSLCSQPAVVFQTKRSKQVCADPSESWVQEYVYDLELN
# T5: CX3CL1/Fractalkine (UniProt P78423 25-100)
# T5 sequence: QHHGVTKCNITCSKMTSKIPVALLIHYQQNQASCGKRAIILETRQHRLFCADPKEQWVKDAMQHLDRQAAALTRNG
# T6: murine CXCL2/MIP-2 (murine, UniProt P10889 28-100)
# T6 sequence: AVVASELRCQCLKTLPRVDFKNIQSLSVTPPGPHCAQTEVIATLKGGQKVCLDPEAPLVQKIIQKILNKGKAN
# T7: murine CXCL1/KC (murine, UniProt P12850 25-96)
# T7 sequence: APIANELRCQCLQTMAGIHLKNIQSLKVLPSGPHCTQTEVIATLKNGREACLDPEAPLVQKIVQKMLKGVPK
# T8: CXCL1/Gro-alpha (UniProt P09341 35-107)
# T8 construct: also called Gro-α; 125I-CXCL1/Gro-alpha
# T8 sequence: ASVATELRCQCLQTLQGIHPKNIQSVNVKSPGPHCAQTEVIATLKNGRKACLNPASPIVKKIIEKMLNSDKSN
# T9: CXCL8/IL-8 (UniProt P10145 28-99, limits assumed)
# T9 construct: also called 125I-CXCL8/IL-8; 125I-IL-8
# T9 sequence (looked up): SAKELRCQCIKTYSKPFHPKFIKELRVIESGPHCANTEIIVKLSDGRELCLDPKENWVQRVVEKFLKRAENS
# B1: recombinant Evasin-3 produced in E. coli (Met-Evasin-3) (other)
# chain: MLVSTIESRTSGDGADNFDVVSCNKNCTSGQNECPEGCFCGLLGQNKKGHCYKIIGNLSGEPPVVRR
# notes: No tag, not glycosylated; also called mature Met-Evasin-3
# What was measured:
# CXCL12/SDF-1-alpha = biological target: T10, CXCL12/SDF-1-alpha (UniProt P48061 22-89); assay: SPR (Biacore 3000), Evasin-3 from E. coli immobilized on CM4 chip, chemokine injected
# T10 construct: also called SDF-1α
# T10 sequence (P48061 22-89 limits assumed): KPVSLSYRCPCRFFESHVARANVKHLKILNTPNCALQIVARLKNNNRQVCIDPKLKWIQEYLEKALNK
# CCL2/MCP-1 = biological target: T11, CCL2/MCP-1 (UniProt P13500 24-99); assay: as above
# T11 construct: also called 125I-MCP-1
# T11 sequence (P13500 24-99 limits assumed): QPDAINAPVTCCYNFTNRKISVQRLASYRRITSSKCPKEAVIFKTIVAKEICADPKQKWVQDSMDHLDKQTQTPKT
# CCL5/RANTES = biological target: T1, CCL5/RANTES; assay: as above
# CCL3/MIP-1-alpha = biological target: T2, CCL3/MIP-1-alpha; assay: as above
# CCL18/PARC = biological target: T3, CCL18/PARC; assay: as above
# CCL11/eotaxin = biological target: T12, CCL11/eotaxin (UniProt P51671 24-97); assay: as above
# T12 construct: also called 125I-eotaxin
# T12 sequence (P51671 24-97 limits assumed): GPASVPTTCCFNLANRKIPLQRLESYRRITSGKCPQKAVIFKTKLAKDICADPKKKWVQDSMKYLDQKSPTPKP
# CCL4/MIP-1-beta = biological target: T4, CCL4/MIP-1-beta; assay: as above
# CX3CL1/Fractalkine = biological target: T5, CX3CL1/Fractalkine; assay: as above
# murine CXCL2/MIP-2 [1] = biological target: T6, murine CXCL2/MIP-2; assay: SPR (Biacore 3000), Evasin-3 from E. coli immobilized on CM4 chip, chemokine injected, Langmuir global fit
# murine CXCL1/KC [2] = biological target: T7, murine CXCL1/KC; assay: as above
# CXCL1/Gro-alpha [3] = biological target: T8, CXCL1/Gro-alpha; assay: as above
# CXCL8/IL-8 [4] = biological target: T9, CXCL8/IL-8; assay: as above
# CXCL8/IL-8 [5] = biological target: T9, CXCL8/IL-8; assay: equilibrium competition receptor binding assay: inhibition of 0.1 nM 125I-IL-8 binding to CHO/CXCR1 cells
# murine CXCL2/MIP-2 [6] = biological target: T6, murine CXCL2/MIP-2; assay: SPR (Biacore 3000), Evasin-3 from E. coli immobilized on CM4 chip, Kd=kd/ka
# murine CXCL1/KC [7] = biological target: T7, murine CXCL1/KC; assay: as above
# CXCL1/Gro-alpha [8] = biological target: T8, CXCL1/Gro-alpha; assay: as above
# CXCL8/IL-8 [9] = biological target: T9, CXCL8/IL-8; assay: as above
binder,measurement,setting,value
B1,binding result,CXCL12/SDF-1-alpha,no binding (tested: 0.5 µg/ml chemokine)
same,binding result,CCL2/MCP-1,no binding (tested: 0.5 µg/ml chemokine)
same,binding result,CCL5/RANTES,no binding (tested: 0.5 µg/ml chemokine)
same,binding result,CCL3/MIP-1-alpha,no binding (tested: 0.5 µg/ml chemokine)
same,binding result,CCL18/PARC,no binding (tested: 0.5 µg/ml chemokine)
same,binding result,CCL11/eotaxin,no binding (tested: 0.5 µg/ml chemokine)
same,binding result,CCL4/MIP-1-beta,no binding (tested: 0.5 µg/ml chemokine)
same,binding result,CX3CL1/Fractalkine,no binding (tested: 0.5 µg/ml chemokine)
same,koff,murine CXCL2/MIP-2 [1],0.000878 s⁻¹
same,kon,murine CXCL2/MIP-2 [1],1.05e+06 M⁻¹ s⁻¹
same,koff,murine CXCL1/KC [2],0.00235 s⁻¹
same,kon,murine CXCL1/KC [2],514000 M⁻¹ s⁻¹
same,koff,CXCL1/Gro-alpha [3],0.00269 s⁻¹
same,kon,CXCL1/Gro-alpha [3],2.23e+06 M⁻¹ s⁻¹
same,koff,CXCL8/IL-8 [4],0.00032 s⁻¹
same,kon,CXCL8/IL-8 [4],603000 M⁻¹ s⁻¹
same,IC50,CXCL8/IL-8 [5],20 nM
same,Kd,murine CXCL2/MIP-2 [6],0.84 nM
same,Kd,murine CXCL1/KC [7],4.56 nM
same,Kd,CXCL1/Gro-alpha [8],1.21 nM
same,Kd,CXCL8/IL-8 [9],0.53 nM

# Source: US20080227711A1 (LABORATOIRES SERONO, published 2008)
